Molecular target: KARS1 (human), Q15046
Experiment: RNA immunoprecipitation with qRT-PCR
Settings: remark: other sources report otherwise

Chain of KARS1 (human), Q15046 (Q15046 whole entry): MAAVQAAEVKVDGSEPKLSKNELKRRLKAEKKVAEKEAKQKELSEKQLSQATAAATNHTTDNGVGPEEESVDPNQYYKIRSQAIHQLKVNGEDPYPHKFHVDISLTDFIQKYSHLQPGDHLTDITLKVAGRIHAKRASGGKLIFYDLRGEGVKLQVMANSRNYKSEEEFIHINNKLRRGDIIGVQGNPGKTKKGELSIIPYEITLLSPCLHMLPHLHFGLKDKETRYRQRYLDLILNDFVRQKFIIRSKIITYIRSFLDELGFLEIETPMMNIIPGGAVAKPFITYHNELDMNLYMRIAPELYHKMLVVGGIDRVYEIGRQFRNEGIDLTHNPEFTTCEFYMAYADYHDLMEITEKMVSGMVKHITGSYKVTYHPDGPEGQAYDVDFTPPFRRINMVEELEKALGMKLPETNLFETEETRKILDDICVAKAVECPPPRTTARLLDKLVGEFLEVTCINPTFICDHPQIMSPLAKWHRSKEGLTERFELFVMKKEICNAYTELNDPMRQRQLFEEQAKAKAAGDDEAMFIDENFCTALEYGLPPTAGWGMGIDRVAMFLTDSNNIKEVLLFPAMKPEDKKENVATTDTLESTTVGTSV

B1: AIMP1, Q12904 (natural protein)
chain: MANNDAVLKRLEQKGAEADQIIEYLKQQVSLLKEKAILQATLREEKKLRVENAKLKKEIEELKQELIQAEIQNGVKQIPFPSGTPLHANSMVSENVIQSTAVTTVSSGTKEQIKGGTGDEKKAKEKIEKKGEKKEKKQQSIAGSADSKPIDVSRLDLRIGCIITARKHPDADSLYVEEVDVGEIAPRTVVSGLVNHVPLEQMQNRMVILLCNLKPAKMRGVLSQAMVMCASSPEKIEILAPPNGSVPGDRITFDAFPGEPDKELNPKKKIWEQIQPDLHTNDECVATYKGVPFEVKGKGVCRAQTMSNSGIK
Question: Which fold enrichment of mRNA (anti-FLAG RIP over IgG) does the source give for B1 here?
Answer: 9.7 fold
